T1: human ICOS (human, UniProt Q9Y6W8 21-199)
T1 construct: also called hICOS; CD278
T1 sequence: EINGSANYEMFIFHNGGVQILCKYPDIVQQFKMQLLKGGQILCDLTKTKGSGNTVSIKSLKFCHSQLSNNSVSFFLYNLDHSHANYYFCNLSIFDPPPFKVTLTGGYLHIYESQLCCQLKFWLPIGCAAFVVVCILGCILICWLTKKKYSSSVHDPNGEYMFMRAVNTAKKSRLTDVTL

T2: human CEA (human, UniProt P06731 35-685)
T2 construct: Endogenous CEA on MKN45 human gastric adenocarcinoma cells; also called Carcinoembryonic antigen; CEACAM5
T2 sequence: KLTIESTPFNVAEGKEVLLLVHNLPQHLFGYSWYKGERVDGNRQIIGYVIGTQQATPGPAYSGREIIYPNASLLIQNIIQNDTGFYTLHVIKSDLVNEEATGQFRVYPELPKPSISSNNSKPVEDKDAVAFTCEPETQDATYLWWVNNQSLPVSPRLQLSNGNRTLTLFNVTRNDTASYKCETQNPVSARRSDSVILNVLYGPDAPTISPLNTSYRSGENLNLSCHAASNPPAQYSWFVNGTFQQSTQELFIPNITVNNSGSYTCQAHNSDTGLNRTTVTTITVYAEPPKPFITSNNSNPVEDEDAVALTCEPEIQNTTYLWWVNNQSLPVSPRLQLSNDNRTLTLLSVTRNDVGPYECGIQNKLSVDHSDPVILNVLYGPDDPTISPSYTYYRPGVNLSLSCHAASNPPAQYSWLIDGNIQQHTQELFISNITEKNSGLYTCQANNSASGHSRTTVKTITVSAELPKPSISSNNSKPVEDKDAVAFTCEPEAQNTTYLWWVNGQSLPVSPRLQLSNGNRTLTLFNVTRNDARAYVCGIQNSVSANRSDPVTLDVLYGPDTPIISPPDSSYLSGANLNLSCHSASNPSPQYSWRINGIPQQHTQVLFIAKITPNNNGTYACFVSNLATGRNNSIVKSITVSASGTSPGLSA

B1: FAP-ICOS_1+1, huIgG1 P329G LALA, monovalent ICOS (JMAb136), monovalent FAP (4B9) (bispecific antibody)
heavy 1: not shown
light 1: DIQMTQSPSSVSASVGDRVTITCRASQGISRLLAWYQQKPGKAPKLLIYVASSLQSGVPSRFSGSGSGTDFTLTISSLQPEDFATYYCQQANSFPWTFGQGTKVEIKRTVAAPSVFIFPPSDRKLKSGTASVVCLLNNFYPREAKVQWKVDNALQSGNSQESVTEQDSKDSTYSLSSTLTLSKADYEKHKVYACEVTHQGLSSPVTKSFNRGEC
heavy 2: EIVLTQSPGTLSLSPGERATLSCRASQSVTSSYLAWYQQKPGQAPRLLINVGSRRATGIPDRFSGSGSGTDFTLTISRLEPEDFAVYYCQQGIMLPPTFGQGTKVEIKSSASTKGPSVFPLAPSSKSTSGGTAALGCLVKDYFPEPVTVSWNSGALTSGVHTFPAVLQSSGLYSLSSVVTVPSSSLGTQTYICNVNHKPSNTKVDKKVEPKSCDKTHTCPPCPAPEAAGGPSVFLFPPKPKDTLMISRTPEVTCVVVDVSHEDPEVKFNWYVDGVEVHNAKTKPREEQYNSTYRVVSVLTVLHQDWLNGKEYKCKVSNKALGAPIEKTISKAKGQPREPQVCTLPPSRDELTKNQVSLSCAVKGFYPSDIAVEWESNGQPENNYKTTPPVLDSDGSFFLVSKLTVDKSRWQQGNVFSCSVMHEALHNHYTQKSLSLSP
light 2: EVQLLESGGGLVQPGGSLRLSCAASGFTFSSYAMSWVRQAPGKGLEWVSAIIGSGASTYYADSVKGRFTISRDNSKNTLYLQMNSLRAEDTAVYYCAKGWFGGFNYWGQGTLVTVSSASVAAPSVFIFPPSDEQLKSGTASVVCLLNNFYPREAKVQWKVDNALQSGNSQESVTEQDSKDSTYSLSSTLTLSKADYEKHKVYACEVTHQGLSSPVTKSFNRGEC
notes: also called ICOS-FAP 1+1; ICOS(JMab136)-FAP(4B9) 1 + 1
B2: DP47-ICOS_2+1, huIgG1 P329G LALA, bivalent ICOS (JMAb136), monovalent DP47 (bispecific antibody)
heavy 1: not shown
heavy 2: not shown
light: DIQMTQSPSSVSASVGDRVTITCRASQGISRLLAWYQQKPGKAPKLLIYVASSLQSGVPSRFSGSGSGTDFTLTISSLQPEDFATYYCQQANSFPWTFGQGTKVEIKRTVAAPSVFIFPPSDRKLKSGTASVVCLLNNFYPREAKVQWKVDNALQSGNSQESVTEQDSKDSTYSLSSTLTLSKADYEKHKVYACEVTHQGLSSPVTKSFNRGEC
notes: Untargeted control, human IgG1 P329G LALA, bivalent for ICOS; also called ICOS-DP47 control molecule; untargeted DP47-ICOS
B3: FAP-ICOS_2+1, huIgG1 P329G LALA, bivalent ICOS (JMAb136), monovalent FAP (4B9) (bispecific antibody)
heavy 1: not shown
heavy 2: not shown
light: DIQMTQSPSSVSASVGDRVTITCRASQGISRLLAWYQQKPGKAPKLLIYVASSLQSGVPSRFSGSGSGTDFTLTISSLQPEDFATYYCQQANSFPWTFGQGTKVEIKRTVAAPSVFIFPPSDRKLKSGTASVVCLLNNFYPREAKVQWKVDNALQSGNSQESVTEQDSKDSTYSLSSTLTLSKADYEKHKVYACEVTHQGLSSPVTKSFNRGEC
notes: Human IgG1 P329G LALA, knob-into-hole; also called ICOS-FAP 2+1; ICOS(JMab136)-FAP(4B9) 2 + 1
B4: DP47-ICOS_1+1, huIgG1 P329G LALA, monovalent ICOS (JMAb136), monovalent DP47 (bispecific antibody)
heavy 1: not shown
light 1: DIQMTQSPSSVSASVGDRVTITCRASQGISRLLAWYQQKPGKAPKLLIYVASSLQSGVPSRFSGSGSGTDFTLTISSLQPEDFATYYCQQANSFPWTFGQGTKVEIKRTVAAPSVFIFPPSDRKLKSGTASVVCLLNNFYPREAKVQWKVDNALQSGNSQESVTEQDSKDSTYSLSSTLTLSKADYEKHKVYACEVTHQGLSSPVTKSFNRGEC
heavy 2: not shown
light 2: not shown
notes: Untargeted control, human IgG1 P329G LALA; also called ICOS-DP47 control molecule; untargeted DP47-ICOS
B5: FAP-ICOS_1+1_HT, huIgG1 P329G LALA, monovalent ICOS (JMAb136), monovalent FAP (4B9) c-terminal fused of the heavy chain C region (bispecific antibody)
heavy 1: not shown
heavy 2: DKTHTCPPCPAPEAAGGPSVFLFPPKPKDTLMISRTPEVTCVVVDVSHEDPEVKFNWYVDGVEVHNAKTKPREEQYNSTYRVVSVLTVLHQDWLNGKEYKCKVSNKALGAPIEKTISKAKGQPREPQVCTLPPSRDELTKNQVSLSCAVKGFYPSDIAVEWESNGQPENNYKTTPPVLDSDGSFFLVSKLTVDKSRWQQGNVFSCSVMHEALHNHYTQKSLSLSPGGGGGSGGGGSGGGGSGGGGSEIVLTQSPGTLSLSPGERATLSCRASQSVTSSYLAWYQQKPGQAPRLLINVGSRRATGIPDRFSGSGSGTDFTLTISRLEPEDFAVYYCQQGIMLPPTFGQGTKVEIK
light: DIQMTQSPSSVSASVGDRVTITCRASQGISRLLAWYQQKPGKAPKLLIYVASSLQSGVPSRFSGSGSGTDFTLTISSLQPEDFATYYCQQANSFPWTFGQGTKVEIKRTVAAPSVFIFPPSDRKLKSGTASVVCLLNNFYPREAKVQWKVDNALQSGNSQESVTEQDSKDSTYSLSSTLTLSKADYEKHKVYACEVTHQGLSSPVTKSFNRGEC
notes: Human IgG1 P329G LALA, knob-into-hole; 4B9 VH and VL fused to the C-termini of the two Fc chains; also called ICOS-FAP 1+1 HT; 1+1 head-to-tail
B6: ICOS(JMab136)-CEA(MEDI-565) 1+1, CEA-ICOS_1+1, huIgG1 P329G LALA, monovalent ICOS (JMAb136), monovalent CEA (MEDI-565) (bispecific antibody)
heavy 1: not shown
light 1: DIQMTQSPSSVSASVGDRVTITCRASQGISRLLAWYQQKPGKAPKLLIYVASSLQSGVPSRFSGSGSGTDFTLTISSLQPEDFATYYCQQANSFPWTFGQGTKVEIKRTVAAPSVFIFPPSDRKLKSGTASVVCLLNNFYPREAKVQWKVDNALQSGNSQESVTEQDSKDSTYSLSSTLTLSKADYEKHKVYACEVTHQGLSSPVTKSFNRGEC
heavy 2: not shown
light 2: EVQLVESGGGLVQPGRSLRLSCAASGFTVSSYWMHWVRQAPGKGLEWVGFIRNKANGGTTEYAASVKGRFTISRDDSKNTLYLQMNSLRAEDTAVYYCARDRGLRFYFDYWGQGTTVTVSSASVAAPSVFIFPPSDEQLKSGTASVVCLLNNFYPREAKVQWKVDNALQSGNSQESVTEQDSKDSTYSLSSTLTLSKADYEKHKVYACEVTHQGLSSPVTKSFNRGEC
notes: Human IgG1 P329G LALA, knob-into-hole; also called CEA(MEDI565)-ICOS(JMAb136)_1 + 1
B7: anti-ICOS 16E09 IgG1 P329G LALA antibody (antibody, V domains shown)
VH: EVQLVQSGAEVKKPGESLKISCKGSGYSFTSYWIGWVRQMPGKGLEWMGIIYPGDSDTRYSPSFQGQVTISADKSISTAYLQWSSLKASDTAMYYCARSSGPYGLYLDYWGQGTLVTVSS
VL: not shown
notes: also called phage-derived ICOS-specific antibody 16E09

Tests used:
[1] = biological target: T1, human ICOS; test: flow cytometry, activated human PBMCs, ICOS on CD4+ T cells
[2] = biological target: T1, human ICOS; test: flow cytometry, activated human PBMCs, ICOS on CD8+ T cells
[3] = biological target: T3, human fibroblast activating protein (huFAP) (human, UniProt Q12884 1-760); test: flow cytometry on NIH/3T3-huFAP clone 19 cells
T3 construct: Expressed on NIH/3T3-huFAP clone 19 cells; also called human FAP; hFAP
Protocol: (§1) This cell line was generated by the transfection of the mouse embryonic fibroblast NIH/3T3 cell line (ATCC CRL-1658) with the expression vector pETR4921 to express huFAP under […] Puromycin selection.
(§2) The staining was fixed for 20 min at 4° C. in the dark, using 75 μl of 1% PFA in FACS buffer per well. Fluorescence was analyzed by FACS using a FACS Fortessa (Software FACS Diva). Binding curves were obtained using GraphPadPrism6 and are shown in FIGS. 6A-6C and 7A-7B, respectively.

[4] = biological target: T1, human ICOS; test: cell-based or functional assay
[5] = biological target: T3, human fibroblast activating protein …; test: flow cytometry on NIH/3T3-huFAP clone 19 cells (human FAP), PE anti-human secondary, median fluorescence intensity
Protocol: as §1, §2

[6] = biological target: T2, human CEA; test: flow cytometry on MKN45 cells (human CEA), Alexa Fluor 647 anti-human Fc secondary, frequency of A647+ cells
Protocol: Briefly, human PBMCs, isolated from either Buffy Coats or fresh blood from healthy human donors (as described in Example 5.1) were incubated in a humidified incubator at 37° C. for 48 hours in RPMI1640 medium including […] PHA-L (Roche, #11249738001) and 100 units/ml recombinant human IL-2 (“Proleukin”, Novartis) at a cell density of 1 million cells per ml.
At the day of the assay, pre-activated PBMCs cells were harvested, washed with PBS, and 0.2 million cells in FACS buffer (PBS with 0.1% BSA) were plated per well of a 96-round bottom-well plate. Likewise, adherent MKN45 tumor cells were detached using trypsin (Gibco, 25300-054), washed and 0.15 million cells were transferred into the 96-round bottom well-plate. […] Cells were washed with FACS buffer and the staining was fixed for 20 min at 4° C. in the dark, using 75 µl of 1% PFA in FACS buffer per well. Cells were washed again two times with FACS Buffer and re-suspended in FACS Buffer for analysis.
Fluorescence was analyzed by FACS using a FACS Fortessa (Software FACS Diva). Binding curves and EC₅₀ values were obtained using GraphPadPrism6.

[7] = biological target: T4, murine ICOS Fc(kih) Avi tag (murine, Avi tag, captured on a streptavidin chip); test: SPR, Biacore T200, 25 C, murine ICOS Fc(kih) on streptavidin chip, antibody injected 1000-31.25 nM, 1:1 Langmuir
T4 construct: also called recombinant murine ICOS Fc(kih)
T4 sequence (chain, as listed by the source limits assumed, chain 1 of 2): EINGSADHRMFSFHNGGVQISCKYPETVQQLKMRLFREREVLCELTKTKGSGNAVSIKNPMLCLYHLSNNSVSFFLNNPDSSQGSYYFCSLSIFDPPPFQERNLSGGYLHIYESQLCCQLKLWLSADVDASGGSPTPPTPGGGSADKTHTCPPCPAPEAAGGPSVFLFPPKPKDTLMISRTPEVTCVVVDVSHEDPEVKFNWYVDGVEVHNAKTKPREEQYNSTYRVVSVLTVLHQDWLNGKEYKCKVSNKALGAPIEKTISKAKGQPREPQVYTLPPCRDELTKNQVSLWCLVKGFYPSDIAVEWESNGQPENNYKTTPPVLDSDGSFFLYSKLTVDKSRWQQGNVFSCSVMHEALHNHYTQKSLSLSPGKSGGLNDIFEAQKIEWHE
T4 sequence (chain, as listed by the source limits assumed, chain 2 of 2): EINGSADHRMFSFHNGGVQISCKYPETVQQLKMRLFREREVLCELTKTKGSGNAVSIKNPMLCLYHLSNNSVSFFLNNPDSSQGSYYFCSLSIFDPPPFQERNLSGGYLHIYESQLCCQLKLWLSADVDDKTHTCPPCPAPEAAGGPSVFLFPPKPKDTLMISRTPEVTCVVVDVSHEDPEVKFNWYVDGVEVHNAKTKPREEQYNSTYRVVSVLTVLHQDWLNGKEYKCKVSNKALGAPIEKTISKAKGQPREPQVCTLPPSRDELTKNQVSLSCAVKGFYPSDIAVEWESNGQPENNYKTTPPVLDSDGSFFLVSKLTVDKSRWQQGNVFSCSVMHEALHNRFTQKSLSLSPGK
Protocol: Surface plasmon resonance experiments were performed on a Biacore T200 at 25° C. with HBS-EP as running buffer (0.01 M HEPES pH 7.4, 0.15 M NaCl, 0.005% (v/v) Surfactant P20 (GE Healthcare)).
The immobilization level was approximately 600 RU. […] The dissociation phase was monitored for 500 s and triggered by switching from the sample solution to HBS-EP. The chip surface was regenerated after every cycle using one injection of 10 mM Glycine pH 3.0 for 60 s.
The affinity constants were derived from the kinetic rate constants by fitting to a 1:1 Langmuir binding using the BIAeval software (GE Healthcare).

Binder	EC50 [1]	EC50 [2]	EC50 [3]	Fold increase vs TCB only at 200 pM CEA-ICOS (% CD69^+CD4^+), Donor 1 (D1) [4]	Fold increase vs TCB only at 200 pM CEA-ICOS (% CD69^+CD4^+), Donor 2 (D2) [4]	Fold increase vs TCB only at 1000 pM CEA-ICOS (% CD69^+CD4^+), Donor 1 (D1) [4]	Fold increase vs TCB only at 1000 pM CEA-ICOS (% CD69^+CD4^+), Donor 2 (D2) [4]	EC50 (read off the curve) [5]	binding result [5]	EC50 (read off the curve) [6]	Kd [7]	koff [7]	kon [7]
B1	34.9 nM	50.7 nM	2.98 nM	2.5 fold	1.5 fold	2.65 fold	1.68 fold	~3 nM	–	–	–	–	–
B2	9.99 nM	12.4 nM	–	–	–	–	–	–	no binding (tested: about 120000 pM)	–	–	–	–
B3	10.7 nM	14.4 nM	5.19 nM	2.66 fold	1.38 fold	2.66 fold	1.96 fold	–	–	–	–	–	–
B4	19.9 nM	25.7 nM	–	–	–	–	–	–	no binding (tested: about 120000 pM)	–	–	–	–
B5	42.6 nM	56.4 nM	6.73 nM	–	–	–	–	–	–	–	–	–	–
B6	–	–	–	4.99 fold	2.91 fold	5.95 fold	2.47 fold	–	–	~0.05 nM	–	–	–
B7	–	–	–	–	–	–	–	–	–	–	180 nM	0.0192 s⁻¹	144000 M⁻¹ s⁻¹

Source: patent publication US20200306373A1 (Hoffmann-La Roche, published 2020)
